{
  "source": "patent CN114805568A",
  "about": "(BEIJING KENUO XINCHENG TECH CO LTD, dated 2022)",
  "binders": {"B1": {"name": "JTX-8064 (antibody, V domains shown)", "VH": "QITLKESGPTLVKPTQTLTLTCTFSGFSLNTYAMGVSWIRQPPGKALEWLASIWWNGNKYNNPSLKSRLTVTKDTSKNQVVLTMTNMDPVDTATYYCAHSRIIRFTDYVMDAWGQGTLVTVSS", "VL": "DIQMTQSPSSLSTSVGDRVTITCRASEDIYNDLAWYQQKPGKAPKLLIYNANSLHTGVASRFSGSGSGTDFTFTISSLQPEDVATYFCQQYYDYPLTFGQGTKLEIK", "notes": "expressed in HEK293, Protein A purified; also called 对照抗体"}},
  "key": {"[1]": {"molecular_target": "T1, LILRB2重组蛋白(购于ACRO，Cat# LI2-H5220) (UniProt Q8N423 22-461)", "T1 construct": "Bought reagent; Used as analyte at '60nm' in BLI", "assay": "BLI (Octet QKe), antibody captured on AHC probe, LILRB2 as analyte, 1:1 fit"}, "[2]": {"molecular_target": "T2, LILRB2-mFc(NCBI号:AAH36827，22-461氨基酸) (UniProt Q8N423 22-461)", "T2 construct": "range 22-461; also called 重组LILRB2; not shown: mouse Fc (mFc)", "assay": "blocking ELISA: LILRB2-mFc binding to coated HLA-G"}},
  "note": "Several values for one entry are separate records, joined by “and”; a condition that tells them apart may be missing. Identical values can stand only once.",
  "data": [
    {"binder": "B1", "values": [
      {"measurement": "Kd", "setting": "[1]", "value": 4.93, "unit": "nM"},
      {"measurement": "koff", "setting": "[1]", "value": 0.00211, "unit": "s⁻¹"},
      {"measurement": "kon", "setting": "[1]", "value": 428000, "unit": "M⁻¹ s⁻¹"},
      {"measurement": "IC50", "setting": "[2]", "value": "0.86 nM and 1 nM"}
    ]}
  ]
}
